This passage reports stoichiometry N results from publication PMC6007975.

The stoichiometry N is a count of units in the complex or per binding partner.

Values joined by “and” are separate entries in the source; they are usually repeats but may differ in a detail not shown here. Equal values may be shown once.

For this test, the target named is N-terminal fragment of mouse GSDMA3 (GSDMA3-NT) (mouse) (UniProt Q5Y4Y6). As to the kind of experiment: cryo-EM structure.

As for “N-terminal fragment of mouse GSDMA3 (GSDMA3-NT) (from UniProt Q5Y4Y6 1-262) (domain or fragment)”, the stoichiometry N is 26 and 28.
